Measured values from patent publication US20220048967A1 (published 2022).
Numbered stars: 1 amine (or outer) side, 2 acyl side, 3 side chain; on linkers, the order of the positions; unused ones are H or OH. Square brackets hold non-standard residues; d marks the D form. Side chains are listed from the residue outwards. Ends that are not written are not given here. * marks the point of attachment. C20 diacid = O=C(O)CCCCCCCCCCCCCCCCCCC(=O)*; γGlu = O=C(O)[C@H](CCC(=O)[*:2])N[*:1]; αMeL = CC(C)C[C@](C)(N)C(=O)O; Dab = NCC[C@H](N)C(=O)O; Dap = NC[C@H](N)C(=O)O; AEEA = NCCOCCOCC(=O)O; Aib = CC(C)(N)C(=O)O

Assays:
human GLP-1 receptor = human GLP-1 receptor (human, UniProt P43220 24-463); assay: cell-based or functional assay
[1] = target: Pro-Link-tagged Human GLP-1R (human, UniProt P43220 24-463); assay: cell-based or functional assay

| Binder | hGLP1R GTPgS % Top (human GLP-1 receptor) [%] | hGLP1R GTPgS Rel EC50 (human GLP-1 receptor) [nM] | hGLP1R B-Arrestin2 % Top [1] [%] | hGLP1R B-Arrestin2 Rel EC50 [1] [nM] |
| --- | --- | --- | --- | --- |
| XXEGTXTSDYSIXLDKKAQXAFIEYLIEGGPSSGAPPPS (not fully specified; D-Tyr1, Aib2, αMeF6, αMeL13, K17 conjugated to (2-[2-(2-Amino-ethoxy)-ethoxy]-acetyl)2-(γ-Glu)-CO-(CH2)18-CO2H, Aib20, C-terminal amide (NH2)) [Example 335] | 89.3 | 0.285 | 73 | 5.31 |
| XXEGTXTSDYSIXLDKKAQXAFIEYLIEGGPSSGAPPPS (not fully specified; D-Tyr1, Aib2, αMeF(2F)6, αMeL13, K17 conjugated to (2-[2-(2-Amino-ethoxy)-ethoxy]-acetyl)2-(γ-Glu)-CO-(CH2)18-CO2H, Aib20, C-terminal amide (NH2)) [Example 336] | 90.2 | 0.377 | 82.5 | 7.78 |
| [dY][Aib]EGTFTSDYSI[αMeL]LD[Dab]K([AEEA-AEEA-γGlu-C20 diacid])AQ[Aib]AFIEYLIAGGPSSGAPPPS-NH2 (N-terminus assumed; SMILES CC[C@H](C)[C@H](NC(=O)[C@H](CC(C)C)NC(=O)[C@H](Cc1ccc(O)cc1)NC(=O)[C@H](CCC(=O)O)NC(=O)[C@@H](NC(=O)[C@H](Cc1ccccc1)NC(=O)[C@H](C)NC(=O)C(C)(C)NC(=O)[C@H](CCC(N)=O)NC(=O)[C@H](C)NC(=O)[C@H](CCCCNC(=O)COCCOCCNC(=O)COCCOCCNC(=O)CC[C@H](NC(=O)CCCCCCCCCCCCCCCCCCC(=O)O)C(=O)O)NC(=O)[C@H](CCN)NC(=O)[C@H](CC(=O)O)NC(=O)[C@H](CC(C)C)NC(=O)[C@](C)(CC(C)C)NC(=O)[C@@H](NC(=O)[C@H](CO)NC(=O)[C@H](Cc1ccc(O)cc1)NC(=O)[C@H](CC(=O)O)NC(=O)[C@H](CO)NC(=O)[C@@H](NC(=O)[C@H](Cc1ccccc1)NC(=O)[C@@H](NC(=O)CNC(=O)[C@H](CCC(=O)O)NC(=O)C(C)(C)NC(=O)[C@H](N)Cc1ccc(O)cc1)[C@@H](C)O)[C@@H](C)O)[C@@H](C)CC)[C@@H](C)CC)C(=O)N[C@@H](C)C(=O)NCC(=O)NCC(=O)N1CCC[C@H]1C(=O)N[C@@H](CO)C(=O)N[C@@H](CO)C(=O)NCC(=O)N[C@@H](C)C(=O)N1CCC[C@H]1C(=O)N1CCC[C@H]1C(=O)N1CCC[C@H]1C(=O)N[C@@H](CO)C(N)=O) [Example 347] | 46.9 | 0.759 | 24.6 | 5.42 |
| [dY][Aib]EGTFTSDYSI[αMeL]LD[Dab]K([AEEA-AEEA-γGlu-C20 diacid])AQ[Aib]EFIEYLIAGGPSSGAPPPS-NH2 (N-terminus assumed; SMILES CC[C@H](C)[C@H](NC(=O)[C@H](CC(C)C)NC(=O)[C@H](Cc1ccc(O)cc1)NC(=O)[C@H](CCC(=O)O)NC(=O)[C@@H](NC(=O)[C@H](Cc1ccccc1)NC(=O)[C@H](CCC(=O)O)NC(=O)C(C)(C)NC(=O)[C@H](CCC(N)=O)NC(=O)[C@H](C)NC(=O)[C@H](CCCCNC(=O)COCCOCCNC(=O)COCCOCCNC(=O)CC[C@H](NC(=O)CCCCCCCCCCCCCCCCCCC(=O)O)C(=O)O)NC(=O)[C@H](CCN)NC(=O)[C@H](CC(=O)O)NC(=O)[C@H](CC(C)C)NC(=O)[C@](C)(CC(C)C)NC(=O)[C@@H](NC(=O)[C@H](CO)NC(=O)[C@H](Cc1ccc(O)cc1)NC(=O)[C@H](CC(=O)O)NC(=O)[C@H](CO)NC(=O)[C@@H](NC(=O)[C@H](Cc1ccccc1)NC(=O)[C@@H](NC(=O)CNC(=O)[C@H](CCC(=O)O)NC(=O)C(C)(C)NC(=O)[C@H](N)Cc1ccc(O)cc1)[C@@H](C)O)[C@@H](C)O)[C@@H](C)CC)[C@@H](C)CC)C(=O)N[C@@H](C)C(=O)NCC(=O)NCC(=O)N1CCC[C@H]1C(=O)N[C@@H](CO)C(=O)N[C@@H](CO)C(=O)NCC(=O)N[C@@H](C)C(=O)N1CCC[C@H]1C(=O)N1CCC[C@H]1C(=O)N1CCC[C@H]1C(=O)N[C@@H](CO)C(N)=O) [Example 350] | 64.1 | 0.589 | 21.8 | 10.8 |
| [dY][Aib]EGTFTSDYSI[αMeL]LD[Dap]K([AEEA-AEEA-γGlu-C20 diacid])AQ[Aib]AFIEYLIAGGPSSGAPPPS-NH2 (N-terminus assumed; SMILES CC[C@H](C)[C@H](NC(=O)[C@H](CC(C)C)NC(=O)[C@H](Cc1ccc(O)cc1)NC(=O)[C@H](CCC(=O)O)NC(=O)[C@@H](NC(=O)[C@H](Cc1ccccc1)NC(=O)[C@H](C)NC(=O)C(C)(C)NC(=O)[C@H](CCC(N)=O)NC(=O)[C@H](C)NC(=O)[C@H](CCCCNC(=O)COCCOCCNC(=O)COCCOCCNC(=O)CC[C@H](NC(=O)CCCCCCCCCCCCCCCCCCC(=O)O)C(=O)O)NC(=O)[C@H](CN)NC(=O)[C@H](CC(=O)O)NC(=O)[C@H](CC(C)C)NC(=O)[C@](C)(CC(C)C)NC(=O)[C@@H](NC(=O)[C@H](CO)NC(=O)[C@H](Cc1ccc(O)cc1)NC(=O)[C@H](CC(=O)O)NC(=O)[C@H](CO)NC(=O)[C@@H](NC(=O)[C@H](Cc1ccccc1)NC(=O)[C@@H](NC(=O)CNC(=O)[C@H](CCC(=O)O)NC(=O)C(C)(C)NC(=O)[C@H](N)Cc1ccc(O)cc1)[C@@H](C)O)[C@@H](C)O)[C@@H](C)CC)[C@@H](C)CC)C(=O)N[C@@H](C)C(=O)NCC(=O)NCC(=O)N1CCC[C@H]1C(=O)N[C@@H](CO)C(=O)N[C@@H](CO)C(=O)NCC(=O)N[C@@H](C)C(=O)N1CCC[C@H]1C(=O)N1CCC[C@H]1C(=O)N1CCC[C@H]1C(=O)N[C@@H](CO)C(N)=O) [Example 348] | 47.7 | 0.66 | 19.8 | 3.46 |
| YXEGTFTSDYSIXLDEKAQXEFIEYLIAGGPSSGAPPPS (Aib2, αMeL13, K17 conjugated to (2-[2-(2-Amino-ethoxy)-ethoxy]-acetyl)2-(γ-Glu)-CO-(CH2)18-CO2H, Aib20, C-terminal amide (NH2)) [Example 331] | 80.9 | 0.375 | 44.3 | 12.8 |
| YXEGTFTSDYSIXLDEKAQXDFIEYLIAGGPSSGAPPPS (not fully specified; Aib2, αMeL13, K17 conjugated to (2-[2-(2-Amino-ethoxy)-ethoxy]-acetyl)2-(γ-Glu)-CO-(CH2)18-CO2H, Aib20, C-terminal amide (NH2)) [Example 344] | 85.8 | 0.423 | 46 | 34.3 |
| XXEGTXTSDYSIXLDKKAQXEFIEYLIAGGPSSGAPPPS (D-Tyr1, Aib2, αMeF6, αMeL13, K17 conjugated to (2-[2-(2-Amino-ethoxy)-ethoxy]-acetyl)2-(γ-Glu)-CO-(CH2)18-CO2H, Aib20, C-terminal amide (NH2)) [Example 345] | 62 | 0.684 | 74.7 | 3.08 |
| YXEGTFTSDYSIXLDEKAQXAFIXYLIAGGPSSGAPPPS (not fully specified; Aib2, αMeL13, K17 conjugated to (2-[2-(2-Amino-ethoxy)-ethoxy]-acetyl)2-(γ-Glu)-CO-(CH2)18-CO2H, Aib20, D-Glu24, C-terminal amide (NH2)) [Example 343] | 74.9 | 0.522 | 41.4 | 45.5 |
| XXEGTFTSDYSIXLDXKAQXAFIEYLIAGGPSSGAPPPS (D-Tyr1, Aib2, αMeL13, Orn16, K17 conjugated to (2-[2-(2-Amino-ethoxy)-ethoxy]-acetyl)2-(γ-Glu)-CO-(CH2)18-CO2H, Aib20, C-terminal amide (NH2)) [Example 346] | 56.6 | 0.737 | 19.3 | 3.25 |
| XXEGTFTSDYSIXLDEKAQXAFIEYLIAGGPSSGAPPPS (not fully specified; D-Tyr1, Aib2, αMeL13, K17 conjugated to (2-[2-(2-Amino-ethoxy)-ethoxy]-acetyl)2-(γ-Glu)-CO-(CH2)18-CO2H, Aib20, C-terminal amide (NH2)) [Example 341] | 78.9 | 0.496 | 21.9 | 18.8 |
| XXEGTFTSDYSIXLDEKAQXEFIEYLIAGGPSSGAPPPS (not fully specified; D-Tyr1, Aib2, αMeL13, K17 conjugated to (2-[2-(2-Amino-ethoxy)-ethoxy]-acetyl)2-(γ-Glu)-CO-(CH2)18-CO2H, Aib20, C-terminal amide (NH2)) [Example 342] | 77.2 | 0.414 | 20.7 | 35 |
| XXEGTFTSDYSIXLDKKAQXAFIEYLIEGGPSSGAPPPS (not fully specified; D-Tyr1, Aib2, αMeL13, K17 conjugated to (2-[2-(2-Amino-ethoxy)-ethoxy]-acetyl)2-(γ-Glu)-CO-(CH2)18-CO2H, Aib20, C-terminal amide (NH2)) [Example 334] | 70.2 | 0.432 | – | > 10300 |
| YXEGTFTSDYSIXLDEKAQXAFIEYLIAGGPSSGAPPPS (Aib2, αMeL13, K17 conjugated to (2-[2-(2-Amino-ethoxy)-ethoxy]-acetyl)2-(γ-Glu)-CO-(CH2)18-CO2H, Aib20, C-terminal amide (NH2)) [Example 332] | 81.5 | 0.453 | 45.6 | 17.1 |
| FXEGTFTSDYSIXLDKKAQXAFIEYLIAGGPSSGAPPPS (not fully specified; Aib2, αMeL13, K17 conjugated to (2-[2-(2-Amino-ethoxy)-ethoxy]-acetyl)2-(γ-Glu)-CO-(CH2)18-CO2H, Aib20, C-terminal amide (NH2)) [Example 337] | 59.5 | 0.322 | 34.1 | 17.4 |
| XXEGTFTSDYSIXLDKKAQXAFIEYLIAGGPSSGAPPPS (not fully specified; D-Tyr1, Aib2, αMeL13, K17 conjugated to (2-[2-(2-Amino-ethoxy)-ethoxy]-acetyl)2-(γ-Glu)-CO-(CH2)18-CO2H, Aib20, C-terminal amide (NH2)) [Example 340] | 67.4 | 0.45 | 20.1 | 10.7 |
| XXEGTFTSDYSIXLDKKAQXEFIEYLIAGGPSSGAPPPS (D-Tyr1, Aib2, αMeL13, K17 conjugated to (2-[2-(2-Amino-ethoxy)-ethoxy]-acetyl)2-(γ-Glu)-CO-(CH2)18-CO2H, Aib20, C-terminal amide (NH2)) [Example 290] | 66.2 | 0.466 | 20 | 23.8 |
| XXEGTFTSDYSIXLDXKAQXEFIEYLIAGGPSSGAPPPS (D-Tyr1, Aib2, αMeL13, Orn16, K17 conjugated to (2-[2-(2-Amino-ethoxy)-ethoxy]-acetyl)2-(γ-Glu)-CO-(CH2)18-CO2H, Aib20, C-terminal amide (NH2)) [Example 349] | 64.5 | 0.464 | 18.4 | 15.1 |
| YXEGTFTSDYSIXLDKKAQXEFIEYLIAGGPSSGAPPPS (not fully specified; Aib2, αMeL13, K17 conjugated to (2-[2-(2-Amino-ethoxy)-ethoxy]-acetyl)-(γ-Glu)-CO-(CH2)18-CO2H, Aib20, C-terminal amide (NH2)) [Example 339] | 74.1 | 0.326 | 44 | 10.7 |
| YXEGTFTSDYSIXLDKKAQXEFIEYLIEGGPSSGAPPPS (Aib2, αMeL13, K17 conjugated to (2-[2-(2-Amino-ethoxy)-ethoxy]-acetyl)2-(γ-Glu)-CO-(CH2)18-CO2H, Aib20, C-terminal amide (NH2)) [Example 333] | 83.4 | 0.442 | 58.2 | 54.8 |
